From publication PMC4624675 (2015) come the findings set out here.

The test concerns the target C-terminal Tandem UBL domain of human USP7 (TUD^USP7), wild type (human). Nature of the test: ITC.

Chain of C-terminal Tandem UBL domain of human USP7 (TUD^USP7), wild type (human) (chain, as listed by the source): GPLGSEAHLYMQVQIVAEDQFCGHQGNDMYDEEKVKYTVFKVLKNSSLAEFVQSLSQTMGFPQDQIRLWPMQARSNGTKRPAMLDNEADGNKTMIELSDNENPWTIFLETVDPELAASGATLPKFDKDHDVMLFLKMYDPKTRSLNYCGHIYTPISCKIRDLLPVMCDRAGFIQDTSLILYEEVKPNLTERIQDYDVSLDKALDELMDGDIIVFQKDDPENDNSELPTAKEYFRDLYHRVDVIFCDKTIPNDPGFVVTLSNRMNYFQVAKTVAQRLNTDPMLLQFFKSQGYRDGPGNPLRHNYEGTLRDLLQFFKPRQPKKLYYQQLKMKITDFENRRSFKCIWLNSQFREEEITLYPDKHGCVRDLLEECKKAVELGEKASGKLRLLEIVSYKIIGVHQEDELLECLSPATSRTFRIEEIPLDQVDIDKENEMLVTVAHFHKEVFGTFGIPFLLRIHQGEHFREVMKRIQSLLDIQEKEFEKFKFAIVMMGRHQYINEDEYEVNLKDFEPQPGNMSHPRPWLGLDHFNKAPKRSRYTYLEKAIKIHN

B1: GST-tagged ICP0 (613–633), wild type (peptide)
chain: SGPRGPRKCARKTRHAETSGA
As to B1, the Kd came to 0.27 µM.

B2: KG-Linker of DNMT1 (GST pull-down bait) (peptide)
chain: KGKGKGKGKGKP
Take B2: the affinity, expressed as Kd, was 3.72 µM.

B3: UHRF1 (642–674) (GST pull-down bait) (peptide)
chain: TGKGKWKRKSAGGGPSRAGSPRRTSKKTKVEPY
As to B3, the Kd amounted to 1.54 µM.

In general, Kd refers to the equilibrium constant for the complex coming apart.
